Test results reported in the array DNA melting data of Ke et al..

Assay: melting temperature; melt of duplexes
Conditions: sodium 0.0675 M; strand 1 µM

| Substance | Tm |
| --- | --- |
| CGACGTGCGATATGTGCTG+CAGCACATTGAGCACGTCG ((((((((...((((((((+))))))))...)))))))) | 57.2 °C |
| CGACGTGCAGTATGTGCTG+CAGCACATCACGCACGTCG ((((((((...((((((((+))))))))...)))))))) | 50.9 °C |
| CGACGTGCCTTATGTGCTG+CAGCACATGCGGCACGTCG (((((((((..((((((((+))))))))..))))))))) | 52.3 °C |
| CGACGTGCTTTATGTGCTG+CAGCACATAATGCACGTCG ((((((((.((((((((((+)))))))))).)))))))) | 55.1 °C |
| CGACGTGCGCGATGTGCTG+CAGCACATTTCGCACGTCG (((((((((..((((((((+))))))))..))))))))) | 53.5 °C |
| CGACGTGCTTCATGTGCTG+CAGCACATCTCGCACGTCG ((((((((...((((((((+))))))))...)))))))) | 47 °C |
| CGACGTGCTCAATGTGCTG+CAGCACATAGGGCACGTCG ((((((((.(.((((((((+)))))))).).)))))))) | 52.8 °C |
| CGACGTGCTAGATGTGCTG+CAGCACATTCGGCACGTCG ((((((((...((((((((+))))))))...)))))))) | 52.1 °C |
| CGACGTGCTTTATGTGCTG+CAGCACATCACGCACGTCG ((((((((.(.((((((((+)))))))).).)))))))) | 47.9 °C |
| CGACGTGCGGTATGTGCTG+CAGCACATGGGGCACGTCG ((((((((...((((((((+))))))))...)))))))) | 51.7 °C |
| CGACGTGCACGATGTGCTG+CAGCACATACCGCACGTCG ((((((((...((((((((+))))))))...)))))))) | 43.6 °C |
| CGACGTGCAGGATGTGCTG+CAGCACATAGCGCACGTCG ((((((((...((((((((+))))))))...)))))))) | 49.6 °C |
| CGACGTGCAAAATGTGCTG+CAGCACATGGGGCACGTCG ((((((((...((((((((+))))))))...)))))))) | 51.7 °C |
| CGACGTGCTGGATGTGCTG+CAGCACATGCCGCACGTCG ((((((((.(.((((((((+)))))))).).)))))))) | 53.6 °C |
| CGACGTGCGGAATGTGCTG+CAGCACATTCCGCACGTCG (((((((((((((((((((+))))))))))))))))))) | 66.6 °C |
| CGACGTGCTTGATGTGCTG+CAGCACATTCAGCACGTCG (((((((((..((((((((+))))))))..))))))))) | 51.9 °C |
| CGACGTGCCGGATGTGCTG+CAGCACATCTGGCACGTCG (((((((((.(((((((((+))))))))).))))))))) | 62.7 °C |
| CGACGTGCTGTATGTGCTG+CAGCACATGCGGCACGTCG ((((((((.(.((((((((+)))))))).).)))))))) | 55.7 °C |

| Substance | Tm |
| --- | --- |
| CGACGTGCTTCATGTGCTG+CAGCACATTCGGCACGTCG ((((((((...((((((((+))))))))...)))))))) | 48.1 °C |
| CGACGTGCAAGATGTGCTG+CAGCACATTCTGCACGTCG (((((((((..((((((((+))))))))..))))))))) | 53.2 °C |
| CGACGTGCTCAATGTGCTG+CAGCACATTTAGCACGTCG (((((((((.(((((((((+))))))))).))))))))) | 54.7 °C |
| CGACGTGCGGGATGTGCTG+CAGCACATGTAGCACGTCG ((((((((...((((((((+))))))))...)))))))) | 53.7 °C |
| CGACGTGCTCCATGTGCTG+CAGCACATCACGCACGTCG ((((((((...((((((((+))))))))...)))))))) | 47 °C |
| CGACGTGCCCCATGTGCTG+CAGCACATTGCGCACGTCG ((((((((.(.((((((((+)))))))).).)))))))) | 48.2 °C |
| CGACGTGCACTATGTGCTG+CAGCACATGTTGCACGTCG (((((((((..((((((((+))))))))..))))))))) | 48.9 °C |
| CGACGTGCCCAATGTGCTG+CAGCACATACTGCACGTCG ((((((((...((((((((+))))))))...)))))))) | 47.5 °C |
| CGACGTGCCGAATGTGCTG+CAGCACATGGGGCACGTCG (((((((((..((((((((+))))))))..))))))))) | 56.8 °C |
| CGACGTGCGCGATGTGCTG+CAGCACATAACGCACGTCG (((((((((..((((((((+))))))))..))))))))) | 54.4 °C |
| CGACGTGCACTATGTGCTG+CAGCACATCGGGCACGTCG ((((((((.(.((((((((+)))))))).).)))))))) | 51.1 °C |
| CGACGTGCCGAATGTGCTG+CAGCACATCTAGCACGTCG ((((((((...((((((((+))))))))...)))))))) | 50.1 °C |
| CGACGTGCATAATGTGCTG+CAGCACATGGGGCACGTCG ((((((((...((((((((+))))))))...)))))))) | 51.2 °C |
| CGACGTGCAACATGTGCTG+CAGCACATCGTGCACGTCG (((((((((..((((((((+))))))))..))))))))) | 47.9 °C |
| CGACGTGCTAGATGTGCTG+CAGCACATATTGCACGTCG ((((((((.(.((((((((+)))))))).).)))))))) | 52.5 °C |
| CGACGTGCTTTATGTGCTG+CAGCACATGGGGCACGTCG ((((((((...((((((((+))))))))...)))))))) | 51 °C |
| CGACGTGCGCCATGTGCTG+CAGCACATCGTGCACGTCG ((((((((.(.((((((((+)))))))).).)))))))) | 47.7 °C |
| CGACGTGCTGGATGTGCTG+CAGCACATCTAGCACGTCG (((((((((.(((((((((+))))))))).))))))))) | 60 °C |
